Test results as given in patent publication US20240279630, “ISOLATED CAS13 PROTEIN AND USE THEREOF” (GUANGZHOU REFORGENE MEDICINE CO., LTD., published 2024).

Columns and labels:
CasRx (Cas13d) = experiment: cell_activity
Cas13m.2 = target: T1, Cas13m.2 (metagenome); experiment: cell_activity; 293T, 72 h; conditions: tags: NLS fusion
T1 chain: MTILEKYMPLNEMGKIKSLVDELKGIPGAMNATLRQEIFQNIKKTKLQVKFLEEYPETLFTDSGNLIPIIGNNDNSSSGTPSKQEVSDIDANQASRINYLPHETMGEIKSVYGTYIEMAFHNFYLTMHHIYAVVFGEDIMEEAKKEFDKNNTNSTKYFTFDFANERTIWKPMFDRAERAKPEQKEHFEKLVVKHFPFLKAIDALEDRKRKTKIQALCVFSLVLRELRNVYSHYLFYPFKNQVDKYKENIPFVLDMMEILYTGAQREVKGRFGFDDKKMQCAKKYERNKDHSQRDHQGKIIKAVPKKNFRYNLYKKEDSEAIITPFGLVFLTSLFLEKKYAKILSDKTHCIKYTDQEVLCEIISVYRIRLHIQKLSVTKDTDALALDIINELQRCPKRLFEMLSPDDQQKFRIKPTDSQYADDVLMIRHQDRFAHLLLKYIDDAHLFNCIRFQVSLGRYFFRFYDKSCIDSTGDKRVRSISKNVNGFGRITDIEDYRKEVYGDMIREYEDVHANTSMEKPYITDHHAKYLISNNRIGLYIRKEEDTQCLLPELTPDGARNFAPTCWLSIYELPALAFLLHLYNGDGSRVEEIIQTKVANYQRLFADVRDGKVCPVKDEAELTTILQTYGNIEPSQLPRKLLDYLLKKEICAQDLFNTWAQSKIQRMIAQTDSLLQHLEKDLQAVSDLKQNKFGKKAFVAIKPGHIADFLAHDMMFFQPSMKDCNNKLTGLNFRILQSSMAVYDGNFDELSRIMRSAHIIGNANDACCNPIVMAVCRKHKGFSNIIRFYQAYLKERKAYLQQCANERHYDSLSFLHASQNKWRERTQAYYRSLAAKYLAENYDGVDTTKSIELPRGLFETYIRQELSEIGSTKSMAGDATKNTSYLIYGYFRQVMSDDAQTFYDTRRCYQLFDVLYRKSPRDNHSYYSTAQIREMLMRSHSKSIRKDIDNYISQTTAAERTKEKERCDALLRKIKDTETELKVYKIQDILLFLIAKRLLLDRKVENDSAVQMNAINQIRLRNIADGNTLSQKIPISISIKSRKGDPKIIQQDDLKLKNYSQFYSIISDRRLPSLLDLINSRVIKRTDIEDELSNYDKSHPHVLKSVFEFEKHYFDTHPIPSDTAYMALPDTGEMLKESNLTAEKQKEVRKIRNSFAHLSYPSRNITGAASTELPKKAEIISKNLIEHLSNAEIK
Experimental: (§1) The 293T cells were transfected with the PTBP1-targeting plasmids of Cas13 m.2, Cas13 m.3, Cas13 m.5, CasRfg.2 and CasRx at 800 ng in a 24-well plate. The negative control group was transfected with the CasRx-BpiI plasmid.
(§2) The transfection method was as follows: [0276] 1) The cells were digested by trypsin (0.25% of Trypsin, EDTA, Thermo, 11058021), counted, and plated into a 24-well plates at 2×10⁵ cells according to 500 uL per well. [0277] 2) For each transfected sample, the complex was prepared according to the following steps: [0278] a. each well of the 24-well plate into which the cells were added, were added with 50 uL of serum-free Opti-MEM I (Thermo, 25200056) reduced serum medium for dilution of the aforementioned plasmid DNA, and mixed gently; [0279] b. it was gently mixed with Lipofectamine 2000 (Thermo, 11668019) before use, and then 1.8 uL of the Lipofectamine 2000 was diluted in each well, i.e., in 50 uL of the Opti-MEM I medium. It was incubated at room temperature for 5 minutes. Note: it was continued to perform step c within 25 minutes; [0280] c. after incubation for 5 minutes, the diluted DNA was combined with the diluted Lipofectamine 2000. They were gently mixed and incubated at room temperature for 20 minutes (the solution might be cloudy visually). Note: the complex was stabilized at room temperature for 6 hours.
(§3) The complex was added into the cells and mixed, and then detected with a QuantStudio™ 5 Real-Time PCR System, 96-well after 72 h.

Cas13m.3 = target: T2, Cas13m.3 (uncultured Bacteroidetes bacterium); experiment: cell_activity; 293T, 72 h; conditions: tags: NLS fusion
T2 chain: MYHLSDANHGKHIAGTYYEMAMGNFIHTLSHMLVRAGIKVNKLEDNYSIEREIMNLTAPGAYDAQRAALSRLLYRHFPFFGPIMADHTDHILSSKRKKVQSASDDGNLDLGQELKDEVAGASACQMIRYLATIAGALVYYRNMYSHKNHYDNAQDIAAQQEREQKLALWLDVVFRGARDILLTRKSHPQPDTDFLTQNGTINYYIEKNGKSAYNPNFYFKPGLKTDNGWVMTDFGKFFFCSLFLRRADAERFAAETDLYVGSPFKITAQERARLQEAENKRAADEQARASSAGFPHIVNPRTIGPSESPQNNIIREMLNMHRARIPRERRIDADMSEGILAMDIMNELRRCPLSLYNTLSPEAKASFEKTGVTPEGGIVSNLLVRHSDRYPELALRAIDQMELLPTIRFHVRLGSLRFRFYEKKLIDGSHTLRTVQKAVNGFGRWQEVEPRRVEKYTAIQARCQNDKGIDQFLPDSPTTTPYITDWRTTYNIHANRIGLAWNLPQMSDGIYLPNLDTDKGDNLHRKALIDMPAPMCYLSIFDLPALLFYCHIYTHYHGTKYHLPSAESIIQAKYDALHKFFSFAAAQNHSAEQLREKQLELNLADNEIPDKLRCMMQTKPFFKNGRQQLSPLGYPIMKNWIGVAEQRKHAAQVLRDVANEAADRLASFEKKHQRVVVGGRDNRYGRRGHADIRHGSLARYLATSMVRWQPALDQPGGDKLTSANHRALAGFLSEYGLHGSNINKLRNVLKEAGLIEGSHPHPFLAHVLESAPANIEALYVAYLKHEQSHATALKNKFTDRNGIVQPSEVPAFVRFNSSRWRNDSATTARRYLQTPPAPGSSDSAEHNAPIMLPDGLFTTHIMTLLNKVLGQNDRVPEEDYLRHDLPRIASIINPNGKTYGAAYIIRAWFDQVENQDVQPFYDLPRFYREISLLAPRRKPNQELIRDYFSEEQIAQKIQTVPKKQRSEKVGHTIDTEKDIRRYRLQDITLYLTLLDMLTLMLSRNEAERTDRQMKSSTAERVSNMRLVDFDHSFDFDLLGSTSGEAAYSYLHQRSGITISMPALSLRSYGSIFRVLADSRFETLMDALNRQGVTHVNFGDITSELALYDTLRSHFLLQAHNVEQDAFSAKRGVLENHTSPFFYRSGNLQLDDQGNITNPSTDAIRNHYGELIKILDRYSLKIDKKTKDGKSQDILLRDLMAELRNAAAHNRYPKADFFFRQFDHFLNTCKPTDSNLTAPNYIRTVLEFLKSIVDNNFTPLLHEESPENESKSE
Experimental: as §1, §2, §3

Cas13m.5 = target: T3, Cas13m.5 (Bacteroidetes bacterium); experiment: cell_activity; 293T, 72 h; conditions: tags: NLS fusion
T3 chain: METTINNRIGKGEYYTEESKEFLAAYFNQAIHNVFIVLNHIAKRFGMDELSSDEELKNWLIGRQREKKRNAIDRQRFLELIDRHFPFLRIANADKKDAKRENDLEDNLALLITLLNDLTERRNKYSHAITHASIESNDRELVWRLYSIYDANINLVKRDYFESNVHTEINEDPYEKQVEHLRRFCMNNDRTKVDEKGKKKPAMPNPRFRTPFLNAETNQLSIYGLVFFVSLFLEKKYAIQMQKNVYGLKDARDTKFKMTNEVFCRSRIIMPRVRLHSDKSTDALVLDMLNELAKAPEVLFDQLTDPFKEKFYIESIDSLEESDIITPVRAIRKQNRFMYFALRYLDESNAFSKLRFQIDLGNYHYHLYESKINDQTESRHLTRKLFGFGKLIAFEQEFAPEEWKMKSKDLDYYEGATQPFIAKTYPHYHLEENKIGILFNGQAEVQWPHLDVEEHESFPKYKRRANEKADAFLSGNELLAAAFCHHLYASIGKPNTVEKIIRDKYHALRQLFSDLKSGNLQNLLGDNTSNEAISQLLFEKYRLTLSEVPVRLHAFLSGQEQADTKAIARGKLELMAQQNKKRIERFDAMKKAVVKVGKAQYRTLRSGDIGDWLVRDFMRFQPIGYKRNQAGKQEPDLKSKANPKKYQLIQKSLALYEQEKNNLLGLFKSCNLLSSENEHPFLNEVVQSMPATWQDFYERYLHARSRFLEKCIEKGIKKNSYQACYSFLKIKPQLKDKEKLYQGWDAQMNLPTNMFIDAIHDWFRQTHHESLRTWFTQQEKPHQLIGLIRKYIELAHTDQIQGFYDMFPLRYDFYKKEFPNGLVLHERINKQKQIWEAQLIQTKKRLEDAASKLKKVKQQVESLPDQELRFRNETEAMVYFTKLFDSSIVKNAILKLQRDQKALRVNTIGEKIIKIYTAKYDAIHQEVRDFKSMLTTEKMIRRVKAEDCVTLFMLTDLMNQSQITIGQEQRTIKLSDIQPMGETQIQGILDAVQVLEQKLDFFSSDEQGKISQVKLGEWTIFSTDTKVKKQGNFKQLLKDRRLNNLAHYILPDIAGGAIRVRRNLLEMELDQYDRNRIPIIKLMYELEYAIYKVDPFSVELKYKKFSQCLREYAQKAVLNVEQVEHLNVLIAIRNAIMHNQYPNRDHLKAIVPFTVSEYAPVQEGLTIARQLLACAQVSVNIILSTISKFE
Experimental: as §1, §2, §3

CasRfg.2 (Cas13d) = target: T4, CasRfg.2 (Cas13d) (metagenome); experiment: cell_activity; 293T, 72 h; conditions: tags: NLS fusion
T4 chain: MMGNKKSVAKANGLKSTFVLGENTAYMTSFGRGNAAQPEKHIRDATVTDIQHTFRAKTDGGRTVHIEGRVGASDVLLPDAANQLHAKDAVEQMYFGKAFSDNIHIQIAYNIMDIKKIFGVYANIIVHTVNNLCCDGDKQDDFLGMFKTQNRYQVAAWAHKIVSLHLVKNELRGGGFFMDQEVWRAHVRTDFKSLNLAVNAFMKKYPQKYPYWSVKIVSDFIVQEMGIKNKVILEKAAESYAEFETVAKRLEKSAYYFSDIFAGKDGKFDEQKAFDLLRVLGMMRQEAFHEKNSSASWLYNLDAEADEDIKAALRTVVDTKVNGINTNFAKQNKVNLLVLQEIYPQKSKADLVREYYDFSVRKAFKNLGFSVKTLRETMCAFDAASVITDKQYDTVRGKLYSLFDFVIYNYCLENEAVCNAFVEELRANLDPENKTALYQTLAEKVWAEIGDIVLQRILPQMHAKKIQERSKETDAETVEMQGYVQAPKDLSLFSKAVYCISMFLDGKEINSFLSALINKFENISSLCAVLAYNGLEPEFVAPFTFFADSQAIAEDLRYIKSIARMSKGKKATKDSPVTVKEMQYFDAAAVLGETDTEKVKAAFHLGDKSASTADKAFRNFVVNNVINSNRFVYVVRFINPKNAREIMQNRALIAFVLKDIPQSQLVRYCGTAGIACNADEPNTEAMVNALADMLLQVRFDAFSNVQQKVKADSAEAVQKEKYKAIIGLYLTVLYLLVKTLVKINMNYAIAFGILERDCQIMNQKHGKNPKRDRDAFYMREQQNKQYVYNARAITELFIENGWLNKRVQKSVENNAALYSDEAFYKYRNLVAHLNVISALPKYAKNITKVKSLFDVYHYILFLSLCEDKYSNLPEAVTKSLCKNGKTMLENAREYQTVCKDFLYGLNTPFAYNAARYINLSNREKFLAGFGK
Experimental: as §1, §2, §3

## AGGGCAGAACCGAUGCUGAUGAAGAC / GUCUUCAUCAGCAUCGGUUCUGCCCU
CasRx (Cas13d); control 1.00
  activity (relative mRNA level): 0.03

## GUGGUUGGAGAACUGGAUGUAGAUGGGCUG / CAGCCCAUCUACAUCCAGUUCUCCAACCAC [PTBP1 gRNA CasRx (guide part only) ; PTBP1 mRNA site]
CasRx (Cas13d); 293T, 72 h, 0.59 in Table 10
  activity (relative mRNA level): 0.6

## GAAGACAAAGAGGGUCGUGG / CCACGACCCUCUUUGUCUUC
CasRx (Cas13d); 293T-AQp1, 72 h
  activity (relative mRNA level): 0.05

B1: PTBP1 gRNA Cas13m.2 ; PTBP1 mRNA site (ssRNA ; ssRNA)
RNA 1: GUGGUUGGAGAACUGGAUGUAGAUGGGCUGGUUGUAGAUGACCUCGUUUUGGAGGGGAAACACAAC
RNA 2: CAGCCCAUCUACAUCCAGUUCUCCAACCAC
Cas13m.2
  activity: 0.49 relative mRNA level

B2: PTBP1 gRNA Cas13m.3 ; PTBP1 mRNA site (ssRNA ; ssRNA)
RNA 1: GUGGUUGGAGAACUGGAUGUAGAUGGGCUGGUUGUAGAAGCCGUUCAUUCGGGACGGUAUGACAAC
RNA 2: B1 RNA 2
Cas13m.3
  activity: 0.46 relative mRNA level

B3: PTBP1 gRNA Cas13m.5 ; PTBP1 mRNA site (ssRNA ; ssRNA)
RNA 1: GUGGUUGGAGAACUGGAUGUAGAUGGGCUGGUUGUGUGUGCCUUUCAAAUUGAAGGCGUUCCCAAC
RNA 2: B1 RNA 2
Cas13m.5
  activity: 0.7 relative mRNA level

B4: PTBP1 gRNA CasRfg.2 ; PTBP1 mRNA site (ssRNA ; ssRNA)
RNA 1: GGUUUUACACCCGUGUAAAACUACACAGUUCUAAAACGUGGUUGGAGAACUGGAUGUAGAUGGGCUG
RNA 2: B1 RNA 2
CasRfg.2 (Cas13d)
  activity: 0.78 relative mRNA level
